Measured values from patent US20200270588A1, “GLUCOSYL TRANSFERASE POLYPEPTIDES AND METHODS OF USE” (Syngenta Participations AG, priority 2017, published 2020).

Assay: UDP luminescence plate assay of E. coli extracts, mutants of SEQ ID No: 1, 2 mM metribuzin
Format: biochemical, Zea mays
Settings: for RATIO: metribuzin signal to DMSO signal / SIGNAL: metribuzin signal of mutant divided by metribuzin signal of w/t bx9 / luminescence signal with metribuzin / SIGNAL: metribuzin signal of mutant divided by the signal of w/t bx9 / luminescence signal observed with 2 mM metribuzin: 2 mM metribuzin; for luminescence signal with metribuzin: H24A null background 1.00E+05 not subtracted; for RATIO of the metribuzin signal to the DMSO signal: 2 mM metribuzin vs DMSO control, same mutant; for SIGNAL: metribuzin signal of mutant divided by the signal of w/t bx9: relative to bx9 w/t; for luminescence signal in the DMSO control: mutants of SEQ ID No: 1, DMSO in place of metribuzin (background UDP-glucose hydrolysis); for luminescence signal observed with 2 mM metribuzin: mutants of SEQ ID No: 1 in E. coli extracts, UDP luminescence
Method: Optionally plate assays are stopped with brief heating to 95 C before returning to ice and addition of UDP-Glo detection reagent followed by incubation at lab temperature. […] In addition a UDP standard curve is run alongside each set of plate tests.
Assays were carried out on extracts of E. coli BL21 DE3 expressing the various C-terminally his-tagged library variants of SEQ ID NO:1 at the amino acid positions listed in Table 11 as described in Example 2 except, in this case, with 2 mM metribuzin in place of herbicide V.
Thus the ratio of the metribuzin to DMSO signal as well as the increase in signal relative to the w/t bx9 is used to help distinguish those mutations most likely to offer the highest activity to metribuzin. A follow up assay monitored by, for example, LC MS is one method to distinguish these cases more quantitatively.

| Molecule | RATIO: metribuzin signal to DMSO signal | SIGNAL: metribuzin signal of mutant divided by metribuzin signal of w/t bx9 | luminescence signal with metribuzin | RATIO of the metribuzin signal to the DMSO signal | SIGNAL: metribuzin signal of mutant divided by the signal of w/t bx9 | luminescence signal in the DMSO control | luminescence signal observed with 2 mM metribuzin |
| --- | --- | --- | --- | --- | --- | --- | --- |
| M135V: bx9 SEQ ID NO:1 mutant (protein, Zea mays) MASSRTGAGAGGRVVVFPFPFQGHFNPVMRLARALHARGLAITVFHSGALDPADYPADYRFVPVTVEADPKLLASEDIAAIVTTLNASCDAPFRARLSALLAAEGRDSVRCVFTDVSWNAVLTASSDLGVPALGVMTASAASLRDYMAYRTLIDKGYLPVKEERKEDPVPELPPYLVKDLLRVDTSDLEEFAELLARTVTAARRASGLIFNTFPLIETDTLAEIHKALSVPVFAVAPLNKLVPTATASLHGVVQADRGCLQWLDTQQPGSVLYVSFGSMAAMDPHEFVELAWGLADSKRPFVWVVRPNLIRGFESGALPDGVEDEVRGRGIVVAWAPQEEVLAHPAVGGFLTHNGWNSTVEAISEGVPMVCCPRHGDQFGNMRYVCDVWKVGTELVGEQLERGQVKAAIDRLFGTKEGEEIKERMKEFKIAAAKGIGIGVDVDETASPRTDLTDLVDLIKSF | 0.97 | 1.18 | 1.46E+05 | – | – | – | – |
| A334E: bx9 SEQ ID NO:1 mutant (protein, Zea mays) MASSRTGAGAGGRVVVFPFPFQGHFNPVMRLARALHARGLAITVFHSGALDPADYPADYRFVPVTVEADPKLLASEDIAAIVTTLNASCDAPFRARLSALLAAEGRDSVRCVFTDVSWNAVLTASSDLGVPALGMMTASAASLRDYMAYRTLIDKGYLPVKEERKEDPVPELPPYLVKDLLRVDTSDLEEFAELLARTVTAARRASGLIFNTFPLIETDTLAEIHKALSVPVFAVAPLNKLVPTATASLHGVVQADRGCLQWLDTQQPGSVLYVSFGSMAAMDPHEFVELAWGLADSKRPFVWVVRPNLIRGFESGALPDGVEDEVRGRGIVVEWAPQEEVLAHPAVGGFLTHNGWNSTVEAISEGVPMVCCPRHGDQFGNMRYVCDVWKVGTELVGEQLERGQVKAAIDRLFGTKEGEEIKERMKEFKIAAAKGIGIGVDVDETASPRTDLTDLVDLIKSF | 0.96 | 1.25 | 1.54E+05 | – | – | – | – |
| I81Y (protein, Zea mays) MASSRTGAGAGGRVVVFPFPFQGHFNPVMRLARALHARGLAITVFHSGALDPADYPADYRFVPVTVEADPKLLASEDIAAYVTTLNASCDAPFRARLSALLAAEGRDSVRCVFTDVSWNAVLTASSDLGVPALGMMTASAASLRDYMAYRTLIDKGYLPVKEERKEDPVPELPPYLVKDLLRVDTSDLEEFAELLARTVTAARRASGLIFNTFPLIETDTLAEIHKALSVPVFAVAPLNKLVPTATASLHGVVQADRGCLQWLDTQQPGSVLYVSFGSMAAMDPHEFVELAWGLADSKRPFVWVVRPNLIRGFESGALPDGVEDEVRGRGIVVAWAPQEEVLAHPAVGGFLTHNGWNSTVEAISEGVPMVCCPRHGDQFGNMRYVCDVWKVGTELVGEQLERGQVKAAIDRLFGTKEGEEIKERMKEFKIAAAKGIGIGVDVDETASPRTDLTDLVDLIKSF | – | – | – | 1.12 | 0.90 | 2.25E+05 | 2.53E+05 |
| A334T: bx9 SEQ ID NO:1 mutant (protein, Zea mays) MASSRTGAGAGGRVVVFPFPFQGHFNPVMRLARALHARGLAITVFHSGALDPADYPADYRFVPVTVEADPKLLASEDIAAIVTTLNASCDAPFRARLSALLAAEGRDSVRCVFTDVSWNAVLTASSDLGVPALGMMTASAASLRDYMAYRTLIDKGYLPVKEERKEDPVPELPPYLVKDLLRVDTSDLEEFAELLARTVTAARRASGLIFNTFPLIETDTLAEIHKALSVPVFAVAPLNKLVPTATASLHGVVQADRGCLQWLDTQQPGSVLYVSFGSMAAMDPHEFVELAWGLADSKRPFVWVVRPNLIRGFESGALPDGVEDEVRGRGIVVTWAPQEEVLAHPAVGGFLTHNGWNSTVEAISEGVPMVCCPRHGDQFGNMRYVCDVWKVGTELVGEQLERGQVKAAIDRLFGTKEGEEIKERMKEFKIAAAKGIGIGVDVDETASPRTDLTDLVDLIKSF | 0.95 | 1.25 | 1.54E+05 | – | – | – | – |
| A432P, M279F: double mutant of bx9 SEQ ID NO:1 (protein, Zea mays) MASSRTGAGAGGRVVVFPFPFQGHFNPVMRLARALHARGLAITVFHSGALDPADYPADYRFVPVTVEADPKLLASEDIAAIVTTLNASCDAPFRARLSALLAAEGRDSVRCVFTDVSWNAVLTASSDLGVPALGMMTASAASLRDYMAYRTLIDKGYLPVKEERKEDPVPELPPYLVKDLLRVDTSDLEEFAELLARTVTAARRASGLIFNTFPLIETDTLAEIHKALSVPVFAVAPLNKLVPTATASLHGVVQADRGCLQWLDTQQPGSVLYVSFGSFAAMDPHEFVELAWGLADSKRPFVWVVRPNLIRGFESGALPDGVEDEVRGRGIVVAWAPQEEVLAHPAVGGFLTHNGWNSTVEAISEGVPMVCCPRHGDQFGNMRYVCDVWKVGTELVGEQLERGQVKAAIDRLFGTKEGEEIKERMKEFKIAPAKGIGIGVDVDETASPRTDLTDLVDLIKSF | – | 1.68 | 2.08E+05 | – | 2.52 | 2.75E+05 | 7.06E+05 |
| A334C: bx9 SEQ ID NO:1 mutant (protein, Zea mays) MASSRTGAGAGGRVVVFPFPFQGHFNPVMRLARALHARGLAITVFHSGALDPADYPADYRFVPVTVEADPKLLASEDIAAIVTTLNASCDAPFRARLSALLAAEGRDSVRCVFTDVSWNAVLTASSDLGVPALGMMTASAASLRDYMAYRTLIDKGYLPVKEERKEDPVPELPPYLVKDLLRVDTSDLEEFAELLARTVTAARRASGLIFNTFPLIETDTLAEIHKALSVPVFAVAPLNKLVPTATASLHGVVQADRGCLQWLDTQQPGSVLYVSFGSMAAMDPHEFVELAWGLADSKRPFVWVVRPNLIRGFESGALPDGVEDEVRGRGIVVCWAPQEEVLAHPAVGGFLTHNGWNSTVEAISEGVPMVCCPRHGDQFGNMRYVCDVWKVGTELVGEQLERGQVKAAIDRLFGTKEGEEIKERMKEFKIAAAKGIGIGVDVDETASPRTDLTDLVDLIKSF | 0.94 | 1.13 | 1.39E+05 | – | – | – | – |
| I81L (protein, Zea mays) MASSRTGAGAGGRVVVFPFPFQGHFNPVMRLARALHARGLAITVFHSGALDPADYPADYRFVPVTVEADPKLLASEDIAALVTTLNASCDAPFRARLSALLAAEGRDSVRCVFTDVSWNAVLTASSDLGVPALGMMTASAASLRDYMAYRTLIDKGYLPVKEERKEDPVPELPPYLVKDLLRVDTSDLEEFAELLARTVTAARRASGLIFNTFPLIETDTLAEIHKALSVPVFAVAPLNKLVPTATASLHGVVQADRGCLQWLDTQQPGSVLYVSFGSMAAMDPHEFVELAWGLADSKRPFVWVVRPNLIRGFESGALPDGVEDEVRGRGIVVAWAPQEEVLAHPAVGGFLTHNGWNSTVEAISEGVPMVCCPRHGDQFGNMRYVCDVWKVGTELVGEQLERGQVKAAIDRLFGTKEGEEIKERMKEFKIAAAKGIGIGVDVDETASPRTDLTDLVDLIKSF | – | – | – | 1.11 | 0.67 | 1.68E+05 | 1.87E+05 |
| M279W: bx9 SEQ ID NO:1 mutant (protein, Zea mays) MASSRTGAGAGGRVVVFPFPFQGHFNPVMRLARALHARGLAITVFHSGALDPADYPADYRFVPVTVEADPKLLASEDIAAIVTTLNASCDAPFRARLSALLAAEGRDSVRCVFTDVSWNAVLTASSDLGVPALGMMTASAASLRDYMAYRTLIDKGYLPVKEERKEDPVPELPPYLVKDLLRVDTSDLEEFAELLARTVTAARRASGLIFNTFPLIETDTLAEIHKALSVPVFAVAPLNKLVPTATASLHGVVQADRGCLQWLDTQQPGSVLYVSFGSWAAMDPHEFVELAWGLADSKRPFVWVVRPNLIRGFESGALPDGVEDEVRGRGIVVAWAPQEEVLAHPAVGGFLTHNGWNSTVEAISEGVPMVCCPRHGDQFGNMRYVCDVWKVGTELVGEQLERGQVKAAIDRLFGTKEGEEIKERMKEFKIAAAKGIGIGVDVDETASPRTDLTDLVDLIKSF | – | 1.14 | 1.41E+05 | – | 1.26 | 2.09E+05 | 3.51E+05 |
| I78Y: bx9 SEQ ID NO:1 mutant (protein, Zea mays) MASSRTGAGAGGRVVVFPFPFQGHFNPVMRLARALHARGLAITVFHSGALDPADYPADYRFVPVTVEADPKLLASEDYAAIVTTLNASCDAPFRARLSALLAAEGRDSVRCVFTDVSWNAVLTASSDLGVPALGMMTASAASLRDYMAYRTLIDKGYLPVKEERKEDPVPELPPYLVKDLLRVDTSDLEEFAELLARTVTAARRASGLIFNTFPLIETDTLAEIHKALSVPVFAVAPLNKLVPTATASLHGVVQADRGCLQWLDTQQPGSVLYVSFGSMAAMDPHEFVELAWGLADSKRPFVWVVRPNLIRGFESGALPDGVEDEVRGRGIVVAWAPQEEVLAHPAVGGFLTHNGWNSTVEAISEGVPMVCCPRHGDQFGNMRYVCDVWKVGTELVGEQLERGQVKAAIDRLFGTKEGEEIKERMKEFKIAAAKGIGIGVDVDETASPRTDLTDLVDLIKSF | – | – | – | – | 1.23 | 3.27E+05 | 3.44E+05 |
